Laboratory results published in patent US20200407442A1 (WUXI BIOLOGICS IRELAND, published 2020).

T1: Variant 2: xPro1.FL-x2 (human; mouse)
T1 construct: Chimeric full-length LAG-3 on transfected 293F cells
T1 chain: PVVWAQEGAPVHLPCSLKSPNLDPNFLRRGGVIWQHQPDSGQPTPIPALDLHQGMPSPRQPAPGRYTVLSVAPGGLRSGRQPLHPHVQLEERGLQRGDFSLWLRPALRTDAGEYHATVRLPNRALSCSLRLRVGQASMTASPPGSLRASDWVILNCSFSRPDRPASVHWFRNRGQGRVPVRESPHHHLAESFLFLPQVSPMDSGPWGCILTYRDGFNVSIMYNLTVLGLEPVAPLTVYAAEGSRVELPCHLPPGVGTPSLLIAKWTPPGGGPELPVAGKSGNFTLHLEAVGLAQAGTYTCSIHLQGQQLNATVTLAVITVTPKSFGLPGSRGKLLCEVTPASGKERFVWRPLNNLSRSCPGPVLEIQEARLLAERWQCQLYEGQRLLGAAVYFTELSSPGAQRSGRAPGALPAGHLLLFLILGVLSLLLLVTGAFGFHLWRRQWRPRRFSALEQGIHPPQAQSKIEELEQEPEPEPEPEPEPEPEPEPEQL

T2: Variant 9: xPro1.FL-x9 (human; mouse)
T2 construct: Chimeric full-length LAG-3 on transfected 293F cells
T2 chain: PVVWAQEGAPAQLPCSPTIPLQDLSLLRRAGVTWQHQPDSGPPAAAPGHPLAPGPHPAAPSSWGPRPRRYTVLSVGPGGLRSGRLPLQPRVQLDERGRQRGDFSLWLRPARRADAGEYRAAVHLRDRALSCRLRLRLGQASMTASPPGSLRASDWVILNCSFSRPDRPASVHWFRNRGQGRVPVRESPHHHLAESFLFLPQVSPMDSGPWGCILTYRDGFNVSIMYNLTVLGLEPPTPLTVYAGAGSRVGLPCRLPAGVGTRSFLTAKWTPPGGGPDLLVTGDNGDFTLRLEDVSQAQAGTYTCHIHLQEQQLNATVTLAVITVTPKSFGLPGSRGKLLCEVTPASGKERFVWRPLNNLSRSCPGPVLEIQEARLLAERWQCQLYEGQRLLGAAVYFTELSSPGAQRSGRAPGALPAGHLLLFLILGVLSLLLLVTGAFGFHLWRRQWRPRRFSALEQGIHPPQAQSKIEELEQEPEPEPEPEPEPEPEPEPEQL

T3: human LAG-3-ECD.D12.mFc mutant E146A (human, UniProt P18627 37-252)
T3 construct: Alanine scanning mutant; construct limits as for m26
T3 chain: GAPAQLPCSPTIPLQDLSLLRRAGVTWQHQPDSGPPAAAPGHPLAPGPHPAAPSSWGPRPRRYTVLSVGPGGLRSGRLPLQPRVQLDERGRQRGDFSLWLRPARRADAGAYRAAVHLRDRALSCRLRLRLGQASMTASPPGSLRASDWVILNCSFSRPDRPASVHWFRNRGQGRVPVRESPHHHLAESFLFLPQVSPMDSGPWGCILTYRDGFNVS

T4: human LAG-3-ECD.D12.mFc mutant V61A (human, UniProt P18627 37-252)
T4 construct: Alanine scanning mutant; construct limits as for m26
T4 chain: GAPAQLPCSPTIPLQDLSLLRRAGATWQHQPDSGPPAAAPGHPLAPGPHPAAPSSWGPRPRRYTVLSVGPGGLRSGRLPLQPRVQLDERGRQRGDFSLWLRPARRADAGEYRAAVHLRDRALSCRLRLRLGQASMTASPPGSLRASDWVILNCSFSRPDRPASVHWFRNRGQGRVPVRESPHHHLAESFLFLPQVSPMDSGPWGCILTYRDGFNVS

T5: human LAG-3-ECD.D12.mFc mutant V101A (human, UniProt P18627 37-252)
T5 construct: Alanine scanning mutant; construct limits as for m26
T5 chain: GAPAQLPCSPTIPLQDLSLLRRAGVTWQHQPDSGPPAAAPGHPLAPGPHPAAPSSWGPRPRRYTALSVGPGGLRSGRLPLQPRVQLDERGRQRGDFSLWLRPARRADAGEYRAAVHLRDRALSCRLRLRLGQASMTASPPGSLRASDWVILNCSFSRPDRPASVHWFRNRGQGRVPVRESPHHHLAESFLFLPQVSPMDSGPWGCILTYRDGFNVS

T6: human LAG-3-ECD.D12.mFc mutant G145A (human, UniProt P18627 37-252)
T6 construct: Alanine scanning mutant; construct limits as for m26
T6 chain: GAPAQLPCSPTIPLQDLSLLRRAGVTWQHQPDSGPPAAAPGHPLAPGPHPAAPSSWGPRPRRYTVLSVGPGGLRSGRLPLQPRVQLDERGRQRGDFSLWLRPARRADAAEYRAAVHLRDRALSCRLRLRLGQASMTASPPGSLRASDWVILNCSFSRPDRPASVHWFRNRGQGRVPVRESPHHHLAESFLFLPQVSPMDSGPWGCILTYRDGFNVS

B1: 1.53.3-uAb-IgG4k (antibody, V domains shown)
VH: QVQLQQWGAGLLKPSETLSLTCGVYGGSFSGYYWSWIRQPPGMGLEWIGEINHRGNTNYNPSLKSRVTISEDTSKNQFSLRLSSVTAADTAVYFCTRGEDYSDYDYYGDFWGQGTLVTVSS
VL: EIVLTQSPATLSLSQGERATLSCRASQSISSYLAWYQQKPGQAPRLLIYAASNRATGIPARFSGSGSGTDFTLTISSLEPEDFAIYYCQQRSNWPLTFGGGTKVEIK
notes: Fully human antibody from OMT rats; IgG4 kappa by its name
B2: 3.40.19-uAb-IgG4L (antibody, V domains shown)
VH: QLQLQESGPGLVKPSETLSLTCTVSGDSISSTSYYWGWIRQPPGKGLEWIGSFYYSGSTYYNPSLKSRVTISVDTSKNQFSLKLNSVTAADTAVYYCARMQLWSYDVDVWGQGTTVTVSS
VL: QSALTQPASVSGSPGQSITISCTGTSSDVGGYDYVAWYQQHPGKVPKLMIYDVSERPSGVSNRFSGSKSGNTASLTISGLQAEDEADYYCSSYTSTTTLVVFGGGTKLSVL
notes: Fully human antibody from OMT rats; IgG4 lambda by its name; also called 3.40.19-uAb-hIgG4L

Legend:
Variant 2: xPro1.FL-x2 = target: T1, Variant 2: xPro1.FL-x2; experiment: FACS, 1 ug/mL antibody, transfected 293F cells
Procedure: (§1) The 10 variants were cloned into pcDNA3 vector and used for 293F cell transfection. Briefly, 293F cells were diluted to a density of 1×10⁶ cells/mL with FreeStyle 293F medium and aliquots of 3 mL/well were added to 24-well plate. Transfections were performed using 293fectin reagent (Life Technologies). For each transfection, 3 μg of DNA were diluted in 150 μOpti-MEM I-reduced serum medium (Life Technologies), and then combined with 6μL 293fectin reagent pre-diluted in 150 μL Opti-MEM I reduced serum medium. The DNA/[…] mixture was allowed to stand at 25° C. for 20 min before being added to the culture. The transfected cells were analyzed by flow cytometry at 48 h post-transfection.
(§2) Binding of antibodies to chimeric LAG-3 variants or full length human/mouse LAG-3 was analyzed by flow cytometry. Briefly, 1 μg/mL antibodies were incubated with chimeric LAG-3-expressing transfected 293F cells for 1 hour at 4° C., and then incubated with 3 μg/mL goat anti-human IgG Fc R-PE (Jackson) for 40 min at 4° C. Cells were analyzed with flow cytometer.

Variant 9: xPro1.FL-x9 = target: T2, Variant 9: xPro1.FL-x9; experiment: FACS, 1 ug/mL antibody, transfected 293F cells
Procedure: as §1, §2

[1] = target: T3, human LAG-3-ECD.D12.mFc mutant E146A; experiment: ELISA, antibody coated, LAG-3 D12.mFc mutant in supernatant, normalised to control mutants
Procedure: (§3) For ELISA binding assay, the antibody 1.53.3-uAb-IgG4k or 3.40.19-uAb-hIgG4L (2 μg/mL) was coated in plates. After interacting with the supernatant that contains quantified LAG-3 mutants or human LAG-3-ECD.D12.mFc protein, HRP conjugated anti-mFc antibody (1:5000; Bethyl, USA) was added as a detection antibody. Absorbance was normalized according to the average absorbance of control mutants. After setting an additional cutoff to the binding fold change (<0.75), the final determined epitope residues were identified.

[2] = target: T4, human LAG-3-ECD.D12.mFc mutant V61A; experiment: as above
Procedure: as §3

[3] = target: T5, human LAG-3-ECD.D12.mFc mutant V101A; experiment: as above
Procedure: as §3

[4] = target: T6, human LAG-3-ECD.D12.mFc mutant G145A; experiment: as above
Procedure: as §3

Binder | MFI (Variant 2: xPro1.FL-x2) | PE+ % (Variant 2: xPro1.FL-x2) [%] | MFI (Variant 9: xPro1.FL-x9) | PE+ % (Variant 9: xPro1.FL-x9) [%] | Fold Change [1] | Fold Change [2] | Fold Change [3] | Fold Change [4]
B1 | 45 | 1.77 | 7030 | 97.3 | 0.701 | 0.637 | 0.504 | 0.692
B2 | 40.6 | 0.305 | 8320 | 87.3 | 0.582 | 0.514 | 0.275 | 0.466
